Key:
[1] = tested on: PC-3 (prostate carcinoma) cells; conditions: PC-3, 48 hours, 3H-thymidine incorporation
Method: (§1) Adherent cells, LNCaP (prostate carcinoma), HT-29 (colon carcinoma) and PC-3 (prostate carcinoma), were cultured in DMEM media containing 10% heat inactivated fetal calf serum (FCS). On the day of the study the cells were detached from the plate with a trypsin solution. The collected cells were washed and resuspended at a concentration of 0.25×10^6 cells/ml in DMEM containing 10% FCS. 100 μl of cell suspension were added to 96 well plates and the plates were incubated for 3 hours to allow the cells to adhere. […] The plates were then incubated for 24 hours, pulsed with 10 μl of a 100 μCi/ml ^3H-thymidine and incubated for an additional 24 hours (total incubation time 48 hours). The plates were harvested using a 96 well Harvester (Packard Instruments) and counted on a Packard Top Count Counter. Four parameter logistic curves were fitted to the ^3H-thymidine incorporation as a function of drug molarity using Prism software to determine IC50 values.
(§2) Prostate carcinoma cells, LNCaP and PC-3 cells or colon carcinoma cells HT-29, were incubated with increasing concentration of the indicated compounds for 48 hours and cellular proliferation was measured using the ^3H-thymidine assay.

[2] = tested on: HT-29 (colon carcinoma) cells; conditions: HT29, 48 hours, 3H-thymidine incorporation
Method: as §1, §2

[3] = tested on: LNCaP (prostate carcinoma) cells; conditions: 48 hours, 3H-thymidine incorporation
Method: as §1, §2

[4] = in vivo; conditions: female, ICR, mouse, iv, 100 umol/kg
Method: Plasma was obtained from three individual animals in each group at 5 minutes, 1, 2, 4, or 6 hr.

[5] = tested on: Ramos cells (CD10pos); format: cell-based, human; conditions: 24 hours, 3H-thymidine
Method: (§3) In addition to LNCaP, a number of B-cell lines, such as Ramos and Namalwa cells express CD10 (CD10^pos cells).
(§4) Suspension cells, BALL-1, Ramos and Namalwa cells were cultured in RPMI media containing 10% heat inactivated fetal calf serum (FCS). On the day of the study, the cells were collected, washed and resuspended at a concentration of 0.5×10^6 cells/ml in RPMI containing 10% FCS. 100 μl of cell suspension was added to 96 well plates. […] Finally 10 μl of a 100 μCi/ml ^3H-thymidine was added per well and the plates were incubated for 24 hours. The plates were harvested using a 96 well Harvester (Packard Instruments) and counted on a Packard Top Count counter. Four parameter logistic curves were fitted to the ^3H-thymidine incorporation as a function of drug molarity using Prism software to determine IC50 values.

[6] = tested on: BALL-1 cells (CD10neg); format: cell-based, human; conditions: Ball-1 (CD10neg), 24 hours, 3H-thymidine
Method: as §3, §4

[7] = Single dose Maximum Tolerated Dose (SD-MTD) study, 49 days, ICR mice (Examples 5 and 6); conditions: mouse, in vivo, iv, SD-MTD (mg/kg), intravenous bolus, ICR mice, Day 49
Method: (§5) In a second single dose Maximum Tolerated Dose (SD-MTD) study, groups of five normal ICR mice were administered intravenous bolus doses of Suc-Leu-Ala-Leu-Dox. The mice were observed daily for 49 days and body weights measured twice weekly.
(§6) In a second single dose Maximum Tolerated Dose (SD-MTD) study, groups of five normal ICR mice were administered intravenous bolus doses of Suc-Leu-Ala-Gly-Dox. The mice were observed daily for 49 days and body weights measured twice weekly.

[8] = tested on: normal ICR mice; assay: as above
Method: as §5, §6

[9] = Repeat-dose tolerability / repeat dose MTD in tumor bearing mice; format: in vivo, mouse; conditions: mouse, in vivo, Table 12, re-analyzed
Source text: In one study, one animal in each dose group (n=8) was terminated as a possible drug-related toxicity death late in the study, at Days 58 and 57 in the low and high dose-groups respectively. The safety of the compound was evidenced by little body weight loss in either the high or low dose groups (less than 5% of the initial weight) during the 60-day observation period, in surviving animals (FIG. 14). In the other study, both the high and low dose were well tolerated. Only one animal in the high dose group (n=10) had over 15% of body weight loss at the end of the study (Day 61).
In repeat-dose studies in tumor bearing mice, groups of ten mice were dosed with various amounts of prodrug for a total of five doses at either five day or 1 week intervals. […] Thus, the prodrugs permit a much greater amount of therapeutic agent to be delivered to the body as a whole and thus to the vicinity of the target cell.

[10] = tested on: human colon carcinoma (HT-29); assay: HT-29 xenograft efficacy study
Source text: Healthy young male nude mice were subcutaneously injected with 5 million of HT-29 cells.

[11] = tested on: Namalwa cells (CD10pos); assay: cells; format: cell-based, human; conditions: 24 hours, 3H-thymidine
Method: as §3, §4

[12] = SD-MTD studies, 60 days, normal mice (Example 14); conditions: mouse, in vivo, Table 12, re-analyzed data and new data
Method: In the single dose Maximum Tolerated Dose (SD-MTD) studies, groups of normal mice were administered intravenous bolus doses of the prodrug. The mice were observed daily for 60 days and body weights measured twice weekly. The SD-MTD was estimated to be equal to the highest dose that produced no death in mice after 60 days.

COc1cccc2c1C(=O)c1c(O)c3c(c(O)c1C2=O)C[C@@](O)(C(=O)CO)C[C@@H]3O[C@H]1C[C@H](NC(=O)CNC(=O)[C@H](C)NC(=O)[C@H](CC(C)C)NC(=O)CCC(=O)O)[C@H](O)[C@H](C)O1 [Suc-Leu-Ala-Gly-Dox]
IC50 [1]: 39 µM
IC50 [2]: 32 µM
IC50 [3]: 15 µM
AUC [4]: 310 µM·h
IC50 [5]: 22.7 µM
IC50 [6]: 23.3 µM
MTD [7]: ≥ 220 mg/kg
acute toxicity, within 24 hours ([8]; any dose level): no acute toxicity
mortalities, morbidity or significant body weight loss over the 49 day study ([8]; any dose level up to 220 mg/kg): no mortalities, morbidity or significant body weight loss
SD-MTD Molar Ratio (Dox =) ([8]; molar basis versus doxorubicin alone): 8.8
MTD ([9]; Repeat Dose MTD (mg/kg), value in parentheses: doxorubicin equivalent dose, Q 5 D × 5 or Q 7 D × 5): > 70 mg/kg
MTD ([9]; Q 5 D × 5 or Q 7 D × 5 as given per compound, read-out: Repeat Dose MTD): > 110 mg/kg
Toxicity (Weight Loss > 20%) ([10]; 40 mg/kg every 7 days for 5 doses): 0/7
Toxicity (Weight Loss > 20%) ([10]; 67 mg/kg every 7 days for 5 doses): 0/7
IC50 [11]: 17.3 µM
MTD ([12]; SD MTD (mg/kg), value in parentheses: doxorubicin equivalent dose): > 141 mg/kg
MTD ([12]; read-out: SD MTD): > 220 mg/kg
